Assay results taken from PMC2756588.

T1: Abp1, P15891
T1 sequence (P15891 535-592, looked up): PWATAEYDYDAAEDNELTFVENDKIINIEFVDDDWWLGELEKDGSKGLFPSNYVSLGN

T2: Bbc1, P47068
T2 sequence (P47068 1-78, looked up): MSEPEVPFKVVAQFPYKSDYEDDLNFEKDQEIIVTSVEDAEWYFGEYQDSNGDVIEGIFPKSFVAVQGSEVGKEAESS

T3: Boi1, P38041
T3 sequence (P38041 1-86, looked up): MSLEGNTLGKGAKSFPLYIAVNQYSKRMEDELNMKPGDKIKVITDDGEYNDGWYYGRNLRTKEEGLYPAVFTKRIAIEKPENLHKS

T4: Boi2, P39969
T4 sequence (P39969 32-116, looked up): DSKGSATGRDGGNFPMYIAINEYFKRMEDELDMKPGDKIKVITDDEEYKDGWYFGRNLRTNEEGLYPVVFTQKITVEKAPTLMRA

T5: Bud14, P27637
T5 sequence (P27637 247-328, looked up): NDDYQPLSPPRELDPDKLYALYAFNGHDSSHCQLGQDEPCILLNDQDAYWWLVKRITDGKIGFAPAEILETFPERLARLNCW

T6: Bzz1-1, P38822
T6 sequence (P38822 478-572, looked up): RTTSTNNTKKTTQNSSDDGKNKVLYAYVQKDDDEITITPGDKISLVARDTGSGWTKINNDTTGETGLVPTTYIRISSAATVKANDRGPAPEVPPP

T7: Bzz1-2, P38822
T7 sequence (P38822 568-633, looked up): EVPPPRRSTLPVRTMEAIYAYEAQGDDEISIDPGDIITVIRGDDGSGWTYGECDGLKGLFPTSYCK

T8: Cdc25, P04821
T8 sequence (P04821 50-136, looked up): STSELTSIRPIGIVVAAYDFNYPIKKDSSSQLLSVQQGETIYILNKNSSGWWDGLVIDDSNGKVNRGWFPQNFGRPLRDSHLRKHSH

T9: Cyk3, Q07533
T9 sequence (Q07533 1-83, looked up): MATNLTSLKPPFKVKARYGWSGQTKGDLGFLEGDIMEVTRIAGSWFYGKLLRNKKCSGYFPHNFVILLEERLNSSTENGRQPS

T10: Fus1, P11710
T10 sequence (P11710 432-512, looked up): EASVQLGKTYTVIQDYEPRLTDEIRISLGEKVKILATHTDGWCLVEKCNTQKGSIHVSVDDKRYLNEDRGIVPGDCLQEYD

T11: Hof1, Q05080
T11 sequence (Q05080 590-669, looked up): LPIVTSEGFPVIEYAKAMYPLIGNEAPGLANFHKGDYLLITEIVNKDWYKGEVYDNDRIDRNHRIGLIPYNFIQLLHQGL

T12: Hse1, P38753
T12 sequence (P38753 208-285, looked up): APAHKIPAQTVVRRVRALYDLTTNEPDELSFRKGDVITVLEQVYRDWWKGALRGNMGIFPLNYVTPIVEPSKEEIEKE

T13: Lsb1, P53281
T13 sequence (P53281 45-122, looked up): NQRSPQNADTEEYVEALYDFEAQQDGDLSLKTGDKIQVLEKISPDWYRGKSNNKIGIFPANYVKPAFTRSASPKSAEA

T14: Lsb3, P43603
T14 sequence (P43603 385-451, looked up): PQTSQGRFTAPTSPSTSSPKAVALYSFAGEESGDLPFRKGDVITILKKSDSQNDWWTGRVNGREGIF

T15: Lsb4, P32793
T15 sequence (P32793 402-468, looked up): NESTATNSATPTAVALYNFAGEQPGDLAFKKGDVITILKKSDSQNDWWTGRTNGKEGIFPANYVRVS

T16: Myo5, Q04439
T16 sequence (Q04439 1072-1160, looked up): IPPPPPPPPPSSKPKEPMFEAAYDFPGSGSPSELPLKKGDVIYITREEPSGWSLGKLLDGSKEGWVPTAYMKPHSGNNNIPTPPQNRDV

T17: Nbp2, Q12163
T17 sequence (Q12163 103-180, looked up): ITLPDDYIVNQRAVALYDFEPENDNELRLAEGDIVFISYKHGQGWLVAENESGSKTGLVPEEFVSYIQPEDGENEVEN

T18: Pex13, P80667
T18 sequence (P80667 295-386, looked up): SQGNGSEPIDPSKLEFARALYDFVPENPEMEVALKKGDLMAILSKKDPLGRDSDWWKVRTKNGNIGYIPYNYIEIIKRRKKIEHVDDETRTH

T19: Pin3, Q06449
T19 sequence (Q06449 53-122, looked up): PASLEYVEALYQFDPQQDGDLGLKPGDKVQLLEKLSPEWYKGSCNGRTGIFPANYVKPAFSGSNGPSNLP

T20: Sla1-2, P32790
T20 sequence (P32790 60-140, looked up): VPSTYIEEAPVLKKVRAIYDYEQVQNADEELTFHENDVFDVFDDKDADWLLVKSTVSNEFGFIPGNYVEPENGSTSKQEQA

T21: Sla1-3, P32790
T21 sequence (P32790 344-424, looked up): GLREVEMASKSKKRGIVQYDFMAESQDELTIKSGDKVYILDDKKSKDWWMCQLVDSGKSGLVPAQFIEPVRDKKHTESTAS

B1: unnamed (peptide)
chain: KRRTSLFPWLHKPGI
B2: unnamed (peptide)
chain: KLSRGRYGLPLSSRP
B3: unnamed (peptide)
chain: GKLKHIPRRPYEIER
B4: unnamed (peptide)
chain: RKQRSIPLSPIVPES
B5: unnamed (peptide)
chain: TKIRRRPQQPLTDFT
B6: unnamed (peptide)
chain: RSRRSSFAYPQQVAI

Each binder was assayed against T1, Abp1, P15891 (assay: SPOT array). Conditions: median of control spots 935.

Binder	SPOT intensity
B1	25
B2	26
B3	4
B4	48
B5	121
B6	28

The binders below were run against T2, Bbc1, P47068 (assay: SPOT array). Conditions: median of control spots 796.

Binder	SPOT intensity
B1	39
B2	9
B3	13
B4	1
B5	190
B6	24

The binders below were run against Bem1-1, P29366 (assay: SPOT array). Conditions: median of control spots 4282.
Chain of Bem1-1, P29366 (P29366 55-141): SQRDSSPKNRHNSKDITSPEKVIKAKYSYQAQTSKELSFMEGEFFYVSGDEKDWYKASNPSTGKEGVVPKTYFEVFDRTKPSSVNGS

Binder	SPOT intensity
B1	0
B2	1
B3	0
B4	0
B5	0
B6	0

What follows are binders tested against Bem1-2, P29366 (assay: SPOT array). Conditions: median of control spots 4347.
Chain of Bem1-2, P29366 (P29366 139-227): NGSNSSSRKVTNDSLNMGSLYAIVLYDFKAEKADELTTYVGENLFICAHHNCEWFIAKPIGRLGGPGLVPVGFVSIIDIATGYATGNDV

Binder	SPOT intensity
B1	0
B2	0
B3	0
B4	0
B5	1
B6	0

These binders were tested against T3, Boi1, P38041 (assay: SPOT array). Conditions: median of control spots 1162.

Binder	SPOT intensity
B1	3
B2	4
B3	0
B4	1
B5	1
B6	1

The binders below were run against T4, Boi2, P39969 (assay: SPOT array). Conditions: median of control spots 1161.

Binder	SPOT intensity
B1	0
B2	1
B3	0
B4	1
B5	1
B6	0

The binders below were run against T5, Bud14, P27637 (assay: SPOT array). Conditions: median of control spots 956.

Binder	SPOT intensity
B1	3
B2	4
B3	0
B4	1
B5	24
B6	3

The binders below were run against T6, Bzz1-1, P38822 (assay: SPOT array). Conditions: median of control spots 4446.

Binder	SPOT intensity
B1	0
B2	0
B3	0
B4	0
B5	0
B6	1

These binders were tested against T7, Bzz1-2, P38822 (assay: SPOT array). Conditions: median of control spots 4538.

Binder	SPOT intensity
B1	3
B2	7
B3	2
B4	5
B5	6
B6	1

The binders below were run against T8, Cdc25, P04821 (assay: SPOT array). Conditions: median of control spots 969.

Binder	SPOT intensity
B1	18
B2	12
B3	0
B4	1
B5	27
B6	10

What follows are binders tested against T9, Cyk3, Q07533 (assay: SPOT array). Conditions: median of control spots 1451.

Binder	SPOT intensity
B1	0
B2	0
B3	0
B4	0
B5	1
B6	0

What follows are binders tested against T10, Fus1, P11710 (assay: SPOT array). Conditions: median of control spots 1200.

Binder	SPOT intensity
B1	31
B2	3
B3	0
B4	17
B5	6
B6	26

What follows are binders tested against GST (assay: SPOT array). Conditions: median of control spots 978.

Binder	SPOT intensity
B1	0
B2	0
B3	1
B4	1
B5	2
B6	0

The binders below were run against T11, Hof1, Q05080 (assay: SPOT array). Conditions: median of control spots 4086.

Binder	SPOT intensity
B1	5
B2	8
B3	1
B4	0
B5	0
B6	4

These binders were tested against T12, Hse1, P38753 (assay: SPOT array). Conditions: median of control spots 1727.

Binder	SPOT intensity
B1	19
B2	10
B3	1
B4	0
B5	1
B6	5

What follows are binders tested against T13, Lsb1, P53281 (assay: SPOT array). Conditions: median of control spots 388.

Binder	SPOT intensity
B1	0
B2	175
B3	5
B4	2
B5	30
B6	0

These binders were tested against T14, Lsb3, P43603 (assay: SPOT array). Conditions: median of control spots 406.

Binder	SPOT intensity
B1	0
B2	4
B3	0
B4	6
B5	4
B6	2

The binders below were run against T15, Lsb4, P32793 (assay: SPOT array). Conditions: median of control spots 397.

Binder	SPOT intensity
B1	0
B2	0
B3	0
B4	9
B5	8
B6	0

The binders below were run against Myo3, P36006 (assay: SPOT array). Conditions: median of control spots 468.

Binder	SPOT intensity
B1	0
B2	1
B3	0
B4	4
B5	14
B6	8

These binders were tested against T16, Myo5, Q04439 (assay: SPOT array). Conditions: median of control spots 471.

Binder	SPOT intensity
B1	0
B2	0
B3	0
B4	2
B5	2
B6	0

What follows are binders tested against T17, Nbp2, Q12163 (assay: SPOT array). Conditions: median of control spots 357.

Binder	SPOT intensity
B1	57
B2	2
B3	0
B4	0
B5	2
B6	0

What follows are binders tested against T18, Pex13, P80667 (assay: SPOT array). Conditions: median of control spots 1341.

Binder	SPOT intensity
B1	4
B2	3
B3	2
B4	2
B5	3
B6	4

What follows are binders tested against T19, Pin3, Q06449 (assay: SPOT array). Conditions: median of control spots 2171.

Binder	SPOT intensity
B1	0
B2	7
B3	4
B4	7
B5	11
B6	8

These binders were tested against Rvs167, P39743 (assay: SPOT array). Conditions: median of control spots 2707.
Chain of Rvs167, P39743 (P39743 419-482): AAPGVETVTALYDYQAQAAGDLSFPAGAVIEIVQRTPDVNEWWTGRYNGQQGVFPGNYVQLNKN

Binder	SPOT intensity
B1	0
B2	3
B3	1
B4	0
B5	1
B6	2

Each binder was assayed against Sho1, P40073 (assay: SPOT array). Conditions: median of control spots 1148.
Chain of Sho1, P40073 (P40073 287-367): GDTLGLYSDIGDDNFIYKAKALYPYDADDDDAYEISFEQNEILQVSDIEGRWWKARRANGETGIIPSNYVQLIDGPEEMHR

Binder	SPOT intensity
B1	61
B2	31
B3	9
B4	49
B5	120
B6	64

What follows are binders tested against T20, Sla1-2, P32790 (assay: SPOT array). Conditions: median of control spots 712.

Binder	SPOT intensity
B1	0
B2	1
B3	0
B4	0
B5	1
B6	1

What follows are binders tested against T21, Sla1-3, P32790 (assay: SPOT array). Conditions: median of control spots 5475.

Binder	SPOT intensity
B1	20
B2	31
B3	16
B4	17
B5	20
B6	29
